Here are results for 2 substances from publication PMC10821591.

This assay has as its target GAP domain of human Ral GTPase Accelerating Protein α1 (residues 1807-1988) (human) (UniProt Q6GYQ0). Put plainly: ITC; MicroCal iTC200, 20 °C; cell: RalGAPα1(GAP) 15 μM; syringe: MAF1 150 μM, 19 injections of 2 μl; 20 mM Hepes pH 7.5, 150 mM NaCl, 1 mM TCEP; one-site model. In general terms: ITC needs no label: the signal is the heat of the interaction.

Sequence of GAP domain of human Ral GTPase Accelerating Protein α1 (residues 1807-1988) (human) (Q6GYQ0 1807-1988): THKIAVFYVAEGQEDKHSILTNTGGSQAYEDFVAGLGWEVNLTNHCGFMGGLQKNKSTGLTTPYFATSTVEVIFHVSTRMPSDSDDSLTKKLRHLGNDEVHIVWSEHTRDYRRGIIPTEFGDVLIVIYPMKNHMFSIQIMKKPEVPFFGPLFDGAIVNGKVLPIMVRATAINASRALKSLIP

The Kd is the concentration at which binding is half-saturated. A low value points to tighter binding. As for “MAF1b STL-RKK (MAF1b 173-443, S438R/T439K/L441K) (domain or fragment)”, the Kd was determined as 518 nM.
One may read the stoichiometry N as a count of units in the complex or per binding partner. As to “T. gondii Mitochondrial Association Factor 1b, structured C-terminal domain (residues 173-443) (domain or fragment)”, the Kd worked out at 334 nM, the dH was -14.6 kcal/mol and the stoichiometry N was found to be 1.
